Patent publication US20190225662A1 (VIB VZW, published 2019)

B1: sAPPα (Fc cleaved) (ligand)
chain: LEVPTDGNAGLLAEPQIAMFCGKLNMHMNVQNGKWESDPSGTKTCIGTKEGILQYCQEVYPELQITNVVEANQPVTIQNWCKRGRKQCKTHTHIVIPYRCLVGEFVSDALLVPDKCKFLHQERMDVCETHLHWHTVAKETCSEKSTNLHDYGMLLPCGIDKFRGVEFVCCPLAEESDSVDSADAEEDDSDVWWGGADTDYADGGEDKVVEVAEEEEVADVEEEEADDDEDVEDGDEVEEEAEEPYEEATERTTSTATTTTTTTESVEEVVRVPTTAASTPDAVDKYLETPGDENEHAHFQKAKERLEAKHRERMSQVMREWEEAERQAKNLPKADKKAVIQHFQEKVESLEQEAANERQQLVETHMARVEAMLNDRRRLALENYITALQAVPPRPHHVFNMLKKYVRAEQKDRQHTLKHFEHVRMVDPKKAAQIRSQVMTHLRVIYERMNQSLSLLYNVPAVAEEIQDEVDELLQKEQNYSDDVLANMISEPRISYGNDALMPSLTETKTTVELLPVNGEFSLDDLQPWHPFGVDSVPANTENEVEPVDARPAADRGLTTRPGSGLTNIKTEEISEVKMDAEFGHDSGFEVRHQK
notes: Made as an Fc fusion in HEK293 cells; also called soluble amyloid precursor protein α; purified sAPPα
B2: ExD-AcD fragment of APP695 (without Fc) (ligand)
chain: SVDSADAEEDDSDVWWGGADTDYADGGEDKVVEVAEEEEVADVEEEEADDDEDVEDGDEVEEEAEEPYEEATERTTSTATTTTTTTESVEEVVRVPTTAASTPD
notes: also called APP695 ExD-AcD fragment; sAPPα ExD-AcD
B3: Sushi domain 1 of the GABAB1a receptor, purified (receptor)
chain: TSEGCQIIHPPWEGGIRYRGLTRDQVKAINFLPVDYEIEYVCRGEREVVGPKVRKCLANGSWTDMDTPSRCV
notes: also called Sushi 1; sushi1

Assays:
[1] = target: B3; experiment: ITC of the synthetic peptide … (211-220) with purified sushi 1
Protocol: (§1) All ITC experiments were carried out on a MicroCal iTC200 system. For ITC experiments involving APP constructs expressed in HEK293 cells, the purified GABABR1a-Sushi1 domain, sAPPα, CuBDAcD, AcD and CuBD constructs were buffer-exchanged by size exclusion chromatography in 20 mM Na-HEPES pH 7.0, 150 mM NaCl supplemented with 5 mM CaCl2. Concentrated samples were diluted and degassed before the experiment at the concentrations reported in the Fig. legends. sAPP fragments (all of them at 30 μM) were placed in the MicroCal sample cell and matching buffer was placed in the reference cell. Sushi1 (300 μM) was in the syringe and was injected into the cell in a series of 1 μL injections at 25° C. All the datasets were subtracted with a reference data consisting of serial injections of Sushi 1 in the cell, containing buffer only under the same conditions. For ITC experiments involving synthetic APP peptides, the Sushi-1 protein was dialysed overnight to PBS buffer. The 17-mer peptide was resuspended in H2O:acetonitrile (5:1) at a stock concentration of 3 mM, and diluted in PBS to 300 uM. In order to avoid buffer-buffer mismatches, the same amount of H2O:acetonitrile mixture was also added when diluting the protein to a 30 uM concentration. The 9-mer peptide was resuspended in PBS. Titrations comprised 26×1.5 μL injections of peptide into the protein, with 90 s intervals. […]

[2] = target: B3; experiment: ITC, sushi1 (300 µM) injected into sAPPα (30 µM); N is the fitted stoichiometry on the Molar Ratio axis
Protocol: as §1

[3] = target: B3; experiment: ITC, peptide (300 uM) injected into Sushi-1 protein (30 uM), PBS; 17mer peptide, APP695 204-220
Protocol: as §1

[4] = target: B3; experiment: ITC of the synthetic peptide with purified sushi 1 (peptide injected into the protein); N is the fitted stoichiometry
Protocol: as §1

[5] = target: B3; experiment: ITC with purified sushi 1
Protocol: as §1

[6] = target: B3; experiment: ITC, sushi1 (300 µM) injected into ExD-AcD (30 µM); N is the fitted stoichiometry on the Molar Ratio axis
Protocol: as §1

sAPPα (Fc cleaved) = target: B1; experiment: ITC, Sushi1 (300 µM) injected into sAPPα (30 µM), 25° C.
Protocol: as §1

[7] = target: B2; experiment: ITC, sushi1 (300 µM) injected into ExD-AcD (30 µM)
Protocol: as §1

Q: Does GGADTDYADG [synthetic peptide, APP695 residues 211-220] bind [1]?
A: no binding

Q: How did the N [2] turn out when B1 was run?
A: 1.12

Q: For DDSDVWWGGADTDYADG (also called 17AA stretch) [synthetic 17mer peptide, APP695 204-220AA], which Kd [3] is on record?
A: 810 nM

Q: What about the N [4] of the same binder?
A: 0.72

Q: How did the molar ratio [5] turn out when B2 was run?
A: ~1

Q: And the N [6]?
A: 1.16

Q: How did the Kd (sAPPα (Fc cleaved)) turn out when B3 was run?
A: 431 nM

Q: And the Kd [7]?
A: 621 nM

Q: How did the N [4] turn out when DDSDVWWGG (also called 204-212AA) [synthetic 9mer peptide, APP695 residues 204-212] was run?
A: 0.96
